From paper PMC2877795, “Laminin chain assembly is regulated by specific coiled-coil interactions” (Journal of Structural Biology, 2010)

Assays:
Settings in all cases: both partners purified
[1] = molecular target: T1, β1γ2 complex of the recombinant mouse laminin coiled-coil fragments (mouse, UniProt P02469 1561-1786; Q61092 949-1191); test: AUC; sedimentation equilibrium and velocity; 5 mM sodium phosphate, 150 mM NaCl, pH 7.0 (methods) or 7.4 (Table 3); 0.1-0.5 mg/ml
T1 construct: two residues (GlySer) left from the protease recognition site after thrombin cleavage; laminin β1 chain, mouse, residues 1561-1786 of the native chain; as m6; laminin γ2 chain, mouse, residues 949-1191 of the native chain; as m10; alone a heterotetramer by AUC (most likely two β1 and two γ2 chains); one chain of each in the trimer with α3; in the αβγ tests all three chains were mixed; also called …
T1 sequence 1: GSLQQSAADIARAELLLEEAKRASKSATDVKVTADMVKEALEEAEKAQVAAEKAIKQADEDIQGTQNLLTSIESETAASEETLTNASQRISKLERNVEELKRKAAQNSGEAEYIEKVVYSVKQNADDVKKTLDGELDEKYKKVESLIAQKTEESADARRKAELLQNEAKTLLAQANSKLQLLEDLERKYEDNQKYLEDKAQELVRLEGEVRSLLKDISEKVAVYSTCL
T1 sequence 2: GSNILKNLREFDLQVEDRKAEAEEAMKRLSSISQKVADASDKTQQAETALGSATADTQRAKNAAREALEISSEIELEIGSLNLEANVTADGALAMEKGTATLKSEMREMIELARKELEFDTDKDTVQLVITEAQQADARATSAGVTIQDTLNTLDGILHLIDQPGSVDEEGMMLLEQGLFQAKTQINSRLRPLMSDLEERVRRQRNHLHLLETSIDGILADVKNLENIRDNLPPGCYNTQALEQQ

[2] = molecular target: T2, β1γ1 complex of the recombinant mouse laminin coiled-coil fragments (mouse, UniProt P02469 1561-1786; P02468 1362-1607); test: as above
T2 construct: two residues (GlySer) left from the protease recognition site after thrombin cleavage; laminin β1 chain, mouse, residues 1561-1786 of the native chain; as m6; laminin γ1 chain, mouse, residues 1362-1607 of the native chain; as m9; heterodimer by AUC; in the αβγ tests all three chains were mixed, the βγ complex was not isolated beforehand; source: mixture of the purified E. coli fragments; not …
T2 sequence 1: T1 sequence 1
T2 sequence 2: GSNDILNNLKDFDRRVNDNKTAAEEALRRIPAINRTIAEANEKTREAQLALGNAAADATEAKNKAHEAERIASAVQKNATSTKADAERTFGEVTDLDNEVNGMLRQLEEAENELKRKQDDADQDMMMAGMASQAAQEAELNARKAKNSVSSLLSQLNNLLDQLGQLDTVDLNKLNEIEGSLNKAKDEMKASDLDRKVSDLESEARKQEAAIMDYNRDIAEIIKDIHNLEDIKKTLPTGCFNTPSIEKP

[3] = molecular target: T3, β2γ1 complex of the recombinant mouse laminin coiled-coil fragments (mouse, UniProt Q61292 1575-1799; P02468 1362-1607); test: native gel or EMSA; mixtures of one α, one β and one γ chain fragment; 10% non-denaturing PAGE (acid gels for basic complexes); mixtures reduced, heated to 70 °C for 5 min and cooled; run overnight at 50 V, room temperature, no cooling; Coomassie; bands confirmed by in-gel trypsin digestion and mass spectrometry
T3 construct: two residues (GlySer) left from the protease recognition site after thrombin cleavage; laminin β2 chain, mouse, residues 1575-1799 of the native chain; as m7; laminin γ1 chain, mouse, residues 1362-1607 of the native chain; as m9; in the αβγ tests all three chains were mixed, the βγ complex was not isolated beforehand; source: mixture of the purified E. coli fragments; not shown: 6xHis, …
T3 sequence 1: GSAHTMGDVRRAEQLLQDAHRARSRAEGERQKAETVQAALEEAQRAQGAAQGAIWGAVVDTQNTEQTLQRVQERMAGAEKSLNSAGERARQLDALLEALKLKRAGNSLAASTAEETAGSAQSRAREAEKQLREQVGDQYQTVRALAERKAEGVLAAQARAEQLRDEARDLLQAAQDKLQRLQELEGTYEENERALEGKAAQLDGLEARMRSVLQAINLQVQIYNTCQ
T3 sequence 2: T2 sequence 2

[4] = molecular target: T4, β3γ2 complex of the recombinant mouse laminin coiled-coil fragments (mouse, UniProt Q61087 945-1168; Q61092 949-1191); test: as above
T4 construct: two residues (GlySer) left from the protease recognition site after thrombin cleavage; laminin β3 chain, mouse, residues 945-1168 of the native chain; as m8; laminin γ2 chain, mouse, residues 949-1191 of the native chain; as m10; in the αβγ tests all three chains were mixed, the βγ complex was not isolated beforehand; source: mixture of the purified E. coli fragments; not shown: 6xHis, …
T4 sequence 1: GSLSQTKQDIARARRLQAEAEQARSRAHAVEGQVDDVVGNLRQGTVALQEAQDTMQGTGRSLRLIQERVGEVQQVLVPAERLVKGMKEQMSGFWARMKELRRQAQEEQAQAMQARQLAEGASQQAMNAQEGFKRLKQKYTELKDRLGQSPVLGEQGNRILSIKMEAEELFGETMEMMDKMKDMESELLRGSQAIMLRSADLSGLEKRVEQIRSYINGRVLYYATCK
T4 sequence 2: T1 sequence 2

[5] = molecular target: T5, recombinant mouse laminin β1 chain C-terminal coiled-coil fragment (1561–1786) (mouse, UniProt P02469 1561-1786); test: AUC; sedimentation equilibrium and velocity; 5 mM sodium phosphate, 150 mM NaCl, pH 7.0 (methods) or 7.4 (Table 3); 0.1-0.5 mg/ml
T5 construct: two residues (GlySer) left from the protease recognition site after thrombin cleavage; laminin β1 chain, mouse, C-terminal coiled-coil fragment, residues 1561-1786 of the native chain (226 residues); source: E. coli JM109(DE3), purified (Ni2+-Sepharose, denaturing, 8 M urea), 6xHis tag removed by thrombin; not shown: 6xHis, N-terminal, cleaved
T5 sequence: T1 sequence 1

[6] = molecular target: T5, recombinant mouse laminin β1 chain …; test: as above; remark: listed apart in the source

B1: recombinant mouse laminin α3 chain C-terminal coiled-coil fragment (2176–2397) (domain or fragment)
chain: GSYENILNAIRAAEDAASKATSASKSAFQTVIKEDLPKRAKTLSSDSEELLNEAKMTQKRLQQVSPALNSLQQTLKTVSVQKDLLDANLTVARDDLHGIQRGDIDSVVIGAKSMVREANGITSEVLDGLNPIQTDLGRIKDSYESARREDFSKALVDANNSVKKLTRKLPDLFIKIESINQQLLPLGNISDNVDRIRELIQQARDAANKVAIPMRFNGKSGVEV
notes: two residues (GlySer) left from the protease recognition site after thrombin cleavage; laminin α3 chain, mouse, C-terminal coiled-coil fragment, residues 2176-2397 of the native chain (222 residues); the printed numbers fit the long (α3B) form; source: E. coli JM109(DE3), purified (Ni2+-Sepharose, denaturing, 8 M urea), 6xHis tag removed by thrombin; not shown: 6xHis, N-terminal, cleaved; pPEP-T …
- stoichiometry N [1]: 1
- stoichiometry N [2]: 1
- binding result [3]: binds
- binding result [4]: binds

B2: recombinant mouse laminin γ1 chain C-terminal coiled-coil fragment (1362–1607) (domain or fragment)
chain: T2 sequence 2
notes: two residues (GlySer) left from the protease recognition site after thrombin cleavage; laminin γ1 chain, mouse, C-terminal coiled-coil fragment, residues 1362-1607 of the native chain (246 residues); source: E. coli JM109(DE3), purified (Ni2+-Sepharose, denaturing, 8 M urea), 6xHis tag removed by thrombin; not shown: 6xHis, N-terminal, cleaved; pPEP-T leader (short C-terminal fragment of the …)
- stoichiometry N [5]: 1

B3: recombinant mouse laminin γ2 chain C-terminal coiled-coil fragment (949–1191) (domain or fragment)
chain: T1 sequence 2
notes: two residues (GlySer) left from the protease recognition site after thrombin cleavage; laminin γ2 chain, mouse, C-terminal coiled-coil fragment, residues 949-1191 of the native chain (243 residues); source: E. coli JM109(DE3), purified (Ni2+-Sepharose, denaturing, 8 M urea), 6xHis tag removed by thrombin; not shown: 6xHis, N-terminal, cleaved; pPEP-T leader (short C-terminal fragment of the …)
- stoichiometry N [6]: 1 γ2 per β1 (2:2)
